The molecules below were run against T1, KRAS-G12V antigen (RAS G12V-T15 peptide) (Homo sapiens, UniProt P01116, G12V) (assay: TCR mutant screening in Jurkat-NFAT-Luc cells with antigen-loaded B13 LCL cells (ONE Glo Luciferase)). Conditions: MHC-II binding region mutants; ratio to wild-type B13.14.1 TCR; 16-24 hours.
T1 construct: endogenous in cells; host or cells: patient B13 autologous LCL cells (endogenous HLA-DP); the peptide is synthetic
Type: cell-based
Experimental: According to the table below, point mutations were performed on the Vα and Vβ of B13.14.1 TCR (including CDR3 region and […]), and a lentiviral vector shuttle plasmid encoding the TCR mutant was constructed, packaged with the standard lentiviral vector in 293T cells, and B13.14.1TCR mutant were subjected to function screening.
The TCR mutant (CDR3 region) lentiviral vector was transduced into Jurkat-NFAT-Luc cell line, and B13 LCL cells loaded with KRAS-G12V antigen (RAS G12V-T15 peptide, SEQ ID NO: 5) were used as antigen-presenting cells. 2×10^4 TCR-T and 2×10^4 antigen-loaded B13 LCL cells were co-cultured for 16-24 hours, and added with ONE Glo Luciferase to detect the expression of fluorescent signal, and the TCR Mut RLU/WT RLU (ratio of RLU signal value of TCR mutant to RLU signal value of wild-type B13.14.1 TCR) was calculated.
The TCR mutant (MHC-II binding region) lentiviral vector was transduced into the Jurkat-NFAT-Luc cell line, and B13 LCL cells loaded with KRAS-G12V antigen (RAS G12V-T15 peptide, SEQ ID NO: 5) were used as the antigen-presenting cells. 2×10^4 TCR-T and 2×10^4 antigen-loaded B13 LCL cells were co-cultured for 16-24 hours, the fluorescence signal expression was detected by adding ONE Glo Luciferase, and TCR Mut RLU/WT RLU (ratio of RLU signal value of TCR mutant to RLU signal value of wild-type B13.14.1TCR) was calculated.

TCR Mut RLU/WT RLU	Molecule
85.85%	α51I-H: B13.14.1 TCR Vα point mutant (protein) TCR alpha: AQSVAQPEDQVNVAEGNPLTVKCTYSVSGNPYLFWYVQYPNRGLQFLLKYHTGDNLVKGSYGFEAEFNKSQTSFHLKKPSALVSDSALYFCAVRDGRGGGNKLTFGTGTQLKVEL TCR beta: GITQSPKYLFRKEGQNVTLSCEQNLNHDAMYWYRQDPGQGLRLIYYSQIVNDFQKGDIAEGYSVSREKKESFPLTVTSAQKNPTAFYLCASSPGQRDNSPLHFGNGTRLTVT
68.25%	α51I-M: B13.14.1 TCR Vα point mutant (protein) TCR alpha: AQSVAQPEDQVNVAEGNPLTVKCTYSVSGNPYLFWYVQYPNRGLQFLLKYMTGDNLVKGSYGFEAEFNKSQTSFHLKKPSALVSDSALYFCAVRDGRGGGNKLTFGTGTQLKVEL TCR beta: GITQSPKYLFRKEGQNVTLSCEQNLNHDAMYWYRQDPGQGLRLIYYSQIVNDFQKGDIAEGYSVSREKKESFPLTVTSAQKNPTAFYLCASSPGQRDNSPLHFGNGTRLTVT
84.17%	α51I-N: B13.14.1 TCR Vα point mutant (protein) TCR alpha: AQSVAQPEDQVNVAEGNPLTVKCTYSVSGNPYLFWYVQYPNRGLQFLLKYNTGDNLVKGSYGFEAEFNKSQTSFHLKKPSALVSDSALYFCAVRDGRGGGNKLTFGTGTQLKVEL TCR beta: GITQSPKYLFRKEGQNVTLSCEQNLNHDAMYWYRQDPGQGLRLIYYSQIVNDFQKGDIAEGYSVSREKKESFPLTVTSAQKNPTAFYLCASSPGQRDNSPLHFGNGTRLTVT
82.47%	α51I-P: B13.14.1 TCR Vα point mutant (protein) TCR alpha: AQSVAQPEDQVNVAEGNPLTVKCTYSVSGNPYLFWYVQYPNRGLQFLLKYPTGDNLVKGSYGFEAEFNKSQTSFHLKKPSALVSDSALYFCAVRDGRGGGNKLTFGTGTQLKVEL TCR beta: GITQSPKYLFRKEGQNVTLSCEQNLNHDAMYWYRQDPGQGLRLIYYSQIVNDFQKGDIAEGYSVSREKKESFPLTVTSAQKNPTAFYLCASSPGQRDNSPLHFGNGTRLTVT
71.70%	α51I-Q: B13.14.1 TCR Vα point mutant (protein) TCR alpha: AQSVAQPEDQVNVAEGNPLTVKCTYSVSGNPYLFWYVQYPNRGLQFLLKYQTGDNLVKGSYGFEAEFNKSQTSFHLKKPSALVSDSALYFCAVRDGRGGGNKLTFGTGTQLKVEL TCR beta: GITQSPKYLFRKEGQNVTLSCEQNLNHDAMYWYRQDPGQGLRLIYYSQIVNDFQKGDIAEGYSVSREKKESFPLTVTSAQKNPTAFYLCASSPGQRDNSPLHFGNGTRLTVT

Second part, the molecule before the results:

Molecule	TCR Mut RLU/WT RLU
α32Y-I: B13.14.1 TCR Vα point mutant (protein) TCR alpha: AQSVAQPEDQVNVAEGNPLTVKCTYSVSGNPILFWYVQYPNRGLQFLLKYITGDNLVKGSYGFEAEFNKSQTSFHLKKPSALVSDSALYFCAVRDGRGGGNKLTFGTGTQLKVEL TCR beta: GITQSPKYLFRKEGQNVTLSCEQNLNHDAMYWYRQDPGQGLRLIYYSQIVNDFQKGDIAEGYSVSREKKESFPLTVTSAQKNPTAFYLCASSPGQRDNSPLHFGNGTRLTVT	4.64%
α32Y-L: B13.14.1 TCR Vα point mutant (protein) TCR alpha: AQSVAQPEDQVNVAEGNPLTVKCTYSVSGNPLLFWYVQYPNRGLQFLLKYITGDNLVKGSYGFEAEFNKSQTSFHLKKPSALVSDSALYFCAVRDGRGGGNKLTFGTGTQLKVEL TCR beta: GITQSPKYLFRKEGQNVTLSCEQNLNHDAMYWYRQDPGQGLRLIYYSQIVNDFQKGDIAEGYSVSREKKESFPLTVTSAQKNPTAFYLCASSPGQRDNSPLHFGNGTRLTVT	6.35%
α32Y-M: B13.14.1 TCR Vα point mutant (protein) TCR alpha: AQSVAQPEDQVNVAEGNPLTVKCTYSVSGNPMLFWYVQYPNRGLQFLLKYITGDNLVKGSYGFEAEFNKSQTSFHLKKPSALVSDSALYFCAVRDGRGGGNKLTFGTGTQLKVEL TCR beta: GITQSPKYLFRKEGQNVTLSCEQNLNHDAMYWYRQDPGQGLRLIYYSQIVNDFQKGDIAEGYSVSREKKESFPLTVTSAQKNPTAFYLCASSPGQRDNSPLHFGNGTRLTVT	4.94%
α32Y-P: B13.14.1 TCR Vα point mutant (protein) TCR alpha: AQSVAQPEDQVNVAEGNPLTVKCTYSVSGNPPLFWYVQYPNRGLQFLLKYITGDNLVKGSYGFEAEFNKSQTSFHLKKPSALVSDSALYFCAVRDGRGGGNKLTFGTGTQLKVEL TCR beta: GITQSPKYLFRKEGQNVTLSCEQNLNHDAMYWYRQDPGQGLRLIYYSQIVNDFQKGDIAEGYSVSREKKESFPLTVTSAQKNPTAFYLCASSPGQRDNSPLHFGNGTRLTVT	3.98%
α32Y-R: B13.14.1 TCR Vα point mutant (protein) TCR alpha: AQSVAQPEDQVNVAEGNPLTVKCTYSVSGNPRLFWYVQYPNRGLQFLLKYITGDNLVKGSYGFEAEFNKSQTSFHLKKPSALVSDSALYFCAVRDGRGGGNKLTFGTGTQLKVEL TCR beta: GITQSPKYLFRKEGQNVTLSCEQNLNHDAMYWYRQDPGQGLRLIYYSQIVNDFQKGDIAEGYSVSREKKESFPLTVTSAQKNPTAFYLCASSPGQRDNSPLHFGNGTRLTVT	5.60%
α32Y-S: B13.14.1 TCR Vα point mutant (protein) TCR alpha: AQSVAQPEDQVNVAEGNPLTVKCTYSVSGNPSLFWYVQYPNRGLQFLLKYITGDNLVKGSYGFEAEFNKSQTSFHLKKPSALVSDSALYFCAVRDGRGGGNKLTFGTGTQLKVEL TCR beta: GITQSPKYLFRKEGQNVTLSCEQNLNHDAMYWYRQDPGQGLRLIYYSQIVNDFQKGDIAEGYSVSREKKESFPLTVTSAQKNPTAFYLCASSPGQRDNSPLHFGNGTRLTVT	5.77%
α32Y-T: B13.14.1 TCR Vα point mutant (protein) TCR alpha: AQSVAQPEDQVNVAEGNPLTVKCTYSVSGNPTLFWYVQYPNRGLQFLLKYITGDNLVKGSYGFEAEFNKSQTSFHLKKPSALVSDSALYFCAVRDGRGGGNKLTFGTGTQLKVEL TCR beta: GITQSPKYLFRKEGQNVTLSCEQNLNHDAMYWYRQDPGQGLRLIYYSQIVNDFQKGDIAEGYSVSREKKESFPLTVTSAQKNPTAFYLCASSPGQRDNSPLHFGNGTRLTVT	3.77%
α32Y-V: B13.14.1 TCR Vα point mutant (protein) TCR alpha: AQSVAQPEDQVNVAEGNPLTVKCTYSVSGNPVLFWYVQYPNRGLQFLLKYITGDNLVKGSYGFEAEFNKSQTSFHLKKPSALVSDSALYFCAVRDGRGGGNKLTFGTGTQLKVEL TCR beta: GITQSPKYLFRKEGQNVTLSCEQNLNHDAMYWYRQDPGQGLRLIYYSQIVNDFQKGDIAEGYSVSREKKESFPLTVTSAQKNPTAFYLCASSPGQRDNSPLHFGNGTRLTVT	4.71%
α32Y-W: B13.14.1 TCR Vα point mutant (protein) TCR alpha: AQSVAQPEDQVNVAEGNPLTVKCTYSVSGNPWLFWYVQYPNRGLQFLLKYITGDNLVKGSYGFEAEFNKSQTSFHLKKPSALVSDSALYFCAVRDGRGGGNKLTFGTGTQLKVEL TCR beta: GITQSPKYLFRKEGQNVTLSCEQNLNHDAMYWYRQDPGQGLRLIYYSQIVNDFQKGDIAEGYSVSREKKESFPLTVTSAQKNPTAFYLCASSPGQRDNSPLHFGNGTRLTVT	3.81%
α51I-A: B13.14.1 TCR Vα point mutant (protein) TCR alpha: AQSVAQPEDQVNVAEGNPLTVKCTYSVSGNPYLFWYVQYPNRGLQFLLKYATGDNLVKGSYGFEAEFNKSQTSFHLKKPSALVSDSALYFCAVRDGRGGGNKLTFGTGTQLKVEL TCR beta: GITQSPKYLFRKEGQNVTLSCEQNLNHDAMYWYRQDPGQGLRLIYYSQIVNDFQKGDIAEGYSVSREKKESFPLTVTSAQKNPTAFYLCASSPGQRDNSPLHFGNGTRLTVT	56.93%
α51I-D: B13.14.1 TCR Vα point mutant (protein) TCR alpha: AQSVAQPEDQVNVAEGNPLTVKCTYSVSGNPYLFWYVQYPNRGLQFLLKYDTGDNLVKGSYGFEAEFNKSQTSFHLKKPSALVSDSALYFCAVRDGRGGGNKLTFGTGTQLKVEL TCR beta: GITQSPKYLFRKEGQNVTLSCEQNLNHDAMYWYRQDPGQGLRLIYYSQIVNDFQKGDIAEGYSVSREKKESFPLTVTSAQKNPTAFYLCASSPGQRDNSPLHFGNGTRLTVT	93.65%
α51I-G: B13.14.1 TCR Vα point mutant (protein) TCR alpha: AQSVAQPEDQVNVAEGNPLTVKCTYSVSGNPYLFWYVQYPNRGLQFLLKYGTGDNLVKGSYGFEAEFNKSQTSFHLKKPSALVSDSALYFCAVRDGRGGGNKLTFGTGTQLKVEL TCR beta: GITQSPKYLFRKEGQNVTLSCEQNLNHDAMYWYRQDPGQGLRLIYYSQIVNDFQKGDIAEGYSVSREKKESFPLTVTSAQKNPTAFYLCASSPGQRDNSPLHFGNGTRLTVT	90.09%

Reference: patent publication US20240000834A1, “RAS MUTANT EPITOPE PEPTIDE AND T CELL RECEPTOR RECOGNIZING RAS MUTANT” (SHANGHAI GENBASE BIOTECHNOLOGY CO., LTD., priority 2020, published 2024)
